Biological target: T1, human MC4R (Homo sapiens, UniProt P32245)
T1 construct: expressed in transfected cells; host or cells: HEK 293T cells, transient transfection with polyethylenimine, co-transfected with CRE-LacZ
Experiment: LacZ reporter gene assay (MC4R_CRE-LacZ transfected 293T cells)
Format: cell-based
Conditions: for EC50: 10% of the volume added was supernatant of 293T cells transfected with the named construct, antagonism of MC4R (rightward shift), average of 4 trials, read-out: EC50 of NDP-MSH dose response curve in presence of supernatant
Method: Activation of MC4R in vitro results in an increase in cyclic adenosine monophosphate (cAMP)[27]. In our assay upregulation of cAMP increased LacZ expression through a cAMP responsive element.
Activation of the MC4R was determined using LacZ as a reporter gene. DNA was transfected into cells with polyethylenimine. Fifty nanograms of human MC4R and 10 μg of cAMP-responsive element (CRE)-LacZ were transfected into 293T cells on 10cm dishes. Another five 10cm dishes with 293T cells were transfected with 10 μg of respectively pAAV-GFP, pAAV-flAgRP, pAAV-VWF-AgRP83-132 , pAAV-VWF-αMSH1 and pAAV-VWF-αMSH4. One day after transfection the MC4R_CRE-LacZ cells were transferred to poly-L-lysine coated 96-wells plates. Three days after transfection supernatant of 10cm dishes was removed and used for LacZ reporter assay. […] In addition only forskolin was added to other wells as a positive control for CRE-LacZ transfection and the subsequent colometric reaction. The medium of another plate with MC4R_CRE-LacZ transfected cells was replaced with assay buffer containing serial dilutions of conditioned medium from cells transfected with αMSH1, αMSH4 or GFP. […] After 5-6 hour incubation at 37°C the assay medium was removed and replaced by 40 μl lysisbuffer (phosphate buffered saline (PBS) containing 0.1% Triton-X-100). The plates were stored at -20°C. After thawing of the plates, 80 μl of substrate (0.1 M phosphate buffer, pH7.4, containing 1.6 g/l o-nitrophenyl β-D-galactopyranoside (ONPG, Invitrogen, the Netherlands), 67.5 mM β-mercaptoethanol (Merck, Germany) and 1.5 mM magnesium chloride) was added to each well. Absorbance at 405 nm was measured in a Victor^2 microplate reader (PerkinElmer, Brussels, Belgium).
Data were analyzed with GraphPad Prism (GraphPad Software Inc., California). Competition curves were fitted from duplicate data points using sigmoidal dose response curve with variable slope.

T1 sequence (P32245 whole entry): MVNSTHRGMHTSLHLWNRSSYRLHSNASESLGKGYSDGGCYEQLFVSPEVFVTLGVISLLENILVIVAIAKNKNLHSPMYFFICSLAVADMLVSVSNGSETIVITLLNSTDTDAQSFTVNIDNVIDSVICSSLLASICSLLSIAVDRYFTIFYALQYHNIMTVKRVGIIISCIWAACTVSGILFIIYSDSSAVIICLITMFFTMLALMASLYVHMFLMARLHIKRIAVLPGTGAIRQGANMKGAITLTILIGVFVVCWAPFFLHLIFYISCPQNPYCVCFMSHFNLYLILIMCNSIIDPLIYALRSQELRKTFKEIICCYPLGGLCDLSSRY

Row | EC50 [pM] | Shift of NDP-MSH dose response curve in presence of supernatant (50% of the volume added was supernatant of transfected 293T cells) | Molecule
1 | 500 | – | VWF-AgRP83-132: minigene product: VWF signal peptide, HA tag, furin site and AgRP83-132; tested as supernatant of transfected 293T cells (SPRRCVRLHESCLGQQVPCCDPCATCYCRFFNAFCYCRKLGTATNLCSRT; not fully specified; Secreted furin-released minigene product; VWF signal peptide, HA tag and RKRR furin site left out; The name 83-132 follows human numbering; it equals mouse precursor 82-131, since the printed primer e)
2 | 1400 | shifted even further to the right | flAgRP: supernatant of 293T cells transfected with full length mouse Agouti-related protein construct with normal AgRP signal peptide (protein, UniProt P56473 1-131, looked up, full-length, supernatant of 293T cells transfected with full length mouse Agouti-related protein construct with normal AgRP signal peptide) MLTAMLLSCVLLLALPPTLGVQMGVAPLKGIRRPDQALFPEFPGLSLNGLKKTTADRAEEVLLQKAEALAEVLDPQNRESRSPRRCVRLHESCLGQQVPCCDPCATCYCRFFNAFCYCRKLGTATNLCSRT
